Experiments:
[1] = biological target: T1, recombinant biotinylated CD71 extracellular domain (Sino Biologics) with an N-terminal 6His tag (human, UniProt P02786 89-760, biotinylated (sites not given)); assay: screening ELISA, ratio
T1 construct: extracellular domain; also called hCD71; huCD71

[2] = biological target: T1, recombinant biotinylated CD71 …; assay: screening ELISA

T1 sequence (P02786 other isoform, or with tags, fused parts or gaps): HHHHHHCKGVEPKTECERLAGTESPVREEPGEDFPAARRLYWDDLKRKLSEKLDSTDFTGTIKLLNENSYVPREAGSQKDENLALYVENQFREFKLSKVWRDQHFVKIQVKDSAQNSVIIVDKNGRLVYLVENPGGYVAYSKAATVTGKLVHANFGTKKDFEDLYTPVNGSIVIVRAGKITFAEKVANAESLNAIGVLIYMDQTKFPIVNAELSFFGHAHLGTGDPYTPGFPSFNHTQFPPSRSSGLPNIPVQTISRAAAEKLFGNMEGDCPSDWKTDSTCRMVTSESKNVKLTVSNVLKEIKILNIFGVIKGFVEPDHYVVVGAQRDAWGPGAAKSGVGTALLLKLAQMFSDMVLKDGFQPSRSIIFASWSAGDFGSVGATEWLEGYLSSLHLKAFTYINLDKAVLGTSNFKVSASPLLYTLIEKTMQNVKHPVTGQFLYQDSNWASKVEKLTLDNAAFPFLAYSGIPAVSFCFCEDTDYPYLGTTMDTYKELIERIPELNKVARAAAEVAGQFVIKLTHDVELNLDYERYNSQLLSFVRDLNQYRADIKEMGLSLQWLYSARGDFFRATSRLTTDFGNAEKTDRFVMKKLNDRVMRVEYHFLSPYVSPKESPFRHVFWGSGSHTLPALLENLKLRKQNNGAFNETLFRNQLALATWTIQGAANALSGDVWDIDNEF

hCD71:HSA [1] | hCD71 [2] | Binder
537 | 1.96e+06 | SEQ ID NO 221 (designed binder, FN3 domain) MLPAPKNLVVSRVTEDSARLSWTAPDAAFDSFHISYQEVVAEGEAIYLRVPGSERSYDLTGLKPGTEYYVLIHGVKGGYESKPLDASFTT
1680 | 3.85e+06 | SEQ ID NO 227 (designed binder, FN3 domain) MLPAPKNLVVSRVTEDSARLSWTAPDAAFDSFRIRYLEWWNIGEAIVLTVPGSERSYDLTGLKPGTEYHVDIWGVKGGYSSYPLSAIFTT
1230 | 2.7e+06 | SEQ ID NO 241 (designed binder, FN3 domain) MLPAPKNLVVSRVTEDSARLSWTAPDAAFDSFNIYYYEWFVSGEAIVLTVPGSERSYDLTGLKPGTEYFVDIDGVKGGYRSRPLSAIFTT
178 | 872000 | SEQ ID NO 242 (designed binder, FN3 domain) MLPAPKNLVVSRVTEDSARLSWTAPDAAFDSFPIKYLEWWSWGEAIVLTVPGSERSYDLTGLKPGTEYRVPISGVKGGGMSGPLSAIFTT
83 | 419000 | SEQ ID NO 239 (designed binder, FN3 domain) MLPAPKNLVVSRVTEDSARLSWTAPDAAFDSFAITYYEGRWRGEAIVLTVPGSERSYDLTGLKPGTEYGVPIRGVKGGTGSLPLSAIFTT
122 | 2.02e+06 | SEQ ID NO 224 (designed binder, FN3 domain) MLLAPKNLVVSRVTEDSARLSWTAPDAAFDSFRYLEQGLYGEAIVLTVPGSERSYDLTGLKPGTEYWVEIIGVKGGEYSTPLSAIFTT
94 | 680000 | SEQ ID NO 234 (designed binder, FN3 domain) MLPAPKNLVVSRVTEDSARLSWTAPDAAFDSFYITYWETWDYGEAIVLTVPGSERSYDLTGLKPGTEYKVPITGVKGGGPSVPLSAIFTT
154 | 570000 | SEQ ID NO 229 (designed binder, FN3 domain) MLPAPKNLVVSRVTEDSARLSWTAPDAAFDSFSIHYDEDWRRGEAIVLTVPGSERSYDLTGLKPGTEYLVEIPGVKGGKASYPLSAIFTT
1050 | 2e+06 | SEQ ID NO 230 (designed binder, FN3 domain) MLPAPKNLVVSRVTEDSARLSWTAPDAAFDSFQIRYPKRWISGEAIVLTVPGSERSYDLTGLKPGTEYEVVIRGVKGGEYSWPLSAIFTT
210 | 2.96e+06 | SEQ ID NO 225 (designed binder, FN3 domain) MLPAPKNLVVSRVTEDSARLSWTAPDAAFDSFKIEYFEYVGYGEAIVLTVPGSERSYDLTGLKPGTEYYVAIYGVKGGWYSRPLSAIFTT
86 | 2.27e+06 | SEQ ID NO 231 (designed binder, FN3 domain) MLPAPKNLVVSRVTEDSARLSWTAPDAAFDSFEIPYIETVALGEAIVLTVPGSERSYDLTGLKPGTEYYVEIYGVKGGSYSYPLSAISTT
17 | 916000 | SEQ ID NO 247 (designed binder, FN3 domain) MLPAPKNLVVSRVTEDSARLSWTAPDAAFDSFYIEWTYKGEAIVLTVPGSERSYDLTGLKPGTEYFVGIPGVKGGKSSYPLSAIFTT
330 | 545000 | SEQ ID NO 244 (designed binder, FN3 domain) MLPAPKNLVVSRVTEDSARLSWTAPDAAFDSFHIDYSEFHLRGEAIVLTVPGSERSYDLTGLKPGTEYLGIFGVKGGEQSGPLSAIFTT
629 | 1.7e+06 | SEQ ID NO 232 (designed binder, FN3 domain) MLPAPKNLVVSRVTEDSARLSWTAPDAAFDSFTIAYDETLNLGEAIVLTVPGSERSYDLTGLKPGTEYIVGIFGVKGGTHSWPLSAIFTT

— patent US20210145976A1 (ARO BIOTHERAPEUTICS, published 2021)
